Measured values taken from patent publication US20170088632A1 (OMEROS, published 2017).
Values belong to the binder of their own block, whether it stands above or below them.

Key:
[1] = target: T1, human MASP-2 (human, UniProt O00187 16-686); assay: titration ELISA on MASP-2 (10 µg/ml)
T1 construct: also called hMASP-2; recombinant human MASP-2

[2] = target: T1, human MASP-2; assay: cell-based or functional assay
[3] = target: T2, human MASP-2A (catalytically inactive human MASP-2, Ser618 to Ala618) (human, UniProt O00187 16-686); assay: ELISA, purified scFv titrated on physically adsorbed human MASP-2A
T2 construct: the ELISA and Biacore methods say only 'MASP-2A', so a tag may have been present; also called huMASP2A; huMASP-2A
T2 sequence (O00187 16-686 S633A): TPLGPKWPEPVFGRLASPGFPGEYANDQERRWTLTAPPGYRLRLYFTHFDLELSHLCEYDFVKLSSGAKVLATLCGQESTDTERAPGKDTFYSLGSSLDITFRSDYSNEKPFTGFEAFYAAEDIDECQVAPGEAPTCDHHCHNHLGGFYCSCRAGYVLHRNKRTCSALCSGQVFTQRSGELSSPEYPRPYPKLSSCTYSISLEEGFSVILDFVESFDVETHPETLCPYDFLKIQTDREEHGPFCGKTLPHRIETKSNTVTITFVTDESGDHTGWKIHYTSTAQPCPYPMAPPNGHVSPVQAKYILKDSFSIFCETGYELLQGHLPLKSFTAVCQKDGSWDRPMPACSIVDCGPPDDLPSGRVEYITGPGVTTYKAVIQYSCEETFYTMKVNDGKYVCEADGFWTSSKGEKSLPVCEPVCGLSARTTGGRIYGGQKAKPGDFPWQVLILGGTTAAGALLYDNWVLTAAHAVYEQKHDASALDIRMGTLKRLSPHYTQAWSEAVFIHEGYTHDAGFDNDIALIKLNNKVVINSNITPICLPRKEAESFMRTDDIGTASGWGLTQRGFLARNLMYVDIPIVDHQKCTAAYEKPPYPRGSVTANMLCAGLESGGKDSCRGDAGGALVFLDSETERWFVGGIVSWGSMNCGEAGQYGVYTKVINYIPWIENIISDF

[4] = target: T1, human MASP-2; assay: cell-based or functional assay; remark: listed apart in the source
[5] = target: African Green monkey MASP-2 (in African Green monkey serum) (African Green monkey); assay: cell-based or functional assay
[6] = target: rat MASP-2 (in rat serum) (rat, UniProt Q9JJS8 20-685); assay: cell-based or functional assay
rat MASP-2 (in rat serum), sequence (Q9JJS8 other isoform, or with tags, fused parts or gaps limits assumed): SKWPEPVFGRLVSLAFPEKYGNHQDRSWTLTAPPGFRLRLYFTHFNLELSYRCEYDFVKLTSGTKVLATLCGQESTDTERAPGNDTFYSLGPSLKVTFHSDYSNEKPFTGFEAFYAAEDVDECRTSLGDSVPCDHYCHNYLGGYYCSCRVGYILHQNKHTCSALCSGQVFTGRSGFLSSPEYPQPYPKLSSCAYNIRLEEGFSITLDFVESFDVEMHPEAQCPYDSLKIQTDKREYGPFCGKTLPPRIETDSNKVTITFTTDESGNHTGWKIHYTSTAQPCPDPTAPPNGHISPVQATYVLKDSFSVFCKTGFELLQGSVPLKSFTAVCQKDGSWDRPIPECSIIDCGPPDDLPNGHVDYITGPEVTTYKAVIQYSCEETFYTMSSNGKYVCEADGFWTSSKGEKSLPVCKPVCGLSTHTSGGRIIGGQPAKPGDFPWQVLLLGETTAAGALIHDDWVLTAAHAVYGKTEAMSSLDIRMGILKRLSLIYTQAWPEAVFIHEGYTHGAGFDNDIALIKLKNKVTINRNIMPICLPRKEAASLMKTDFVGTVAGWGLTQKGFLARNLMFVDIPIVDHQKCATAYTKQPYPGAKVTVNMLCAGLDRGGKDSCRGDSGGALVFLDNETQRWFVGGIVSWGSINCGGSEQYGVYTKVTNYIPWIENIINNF

[7] = target: T2, human MASP-2A (catalytically inactive …); assay: titration ELISA on coated human MASP-2A ('Binding affinity'), IgG4 mutated format
Experimental: (§1) The clones were then purified and re-tested in an ELISA and activity assay as follows. Human MASP-2A was coated at 3 μg/ml in PBS on a maxisorp plate, IgG (45 μg/ml) and Fab′2 (30 μg/ml) were diluted in PBS-Tween to a starting concentration of 300 nM, and further with 3-fold dilutions. IgGs were detected with HRP conjugated Goat α-Human IgG (Southern Biotech) and the F(ab′)2 were detected with HRP-conjugated Goat α-Human IgG H+L (Pierce 31412). The reaction was developed with TMB substrate and stopped with 2M H₂SO₄.

[8] = target: T2, human MASP-2A (catalytically inactive …); assay: titration ELISA on coated human MASP-2A ('Binding affinity'), F(ab′)2
Experimental: as §1

[9] = target: T1, human MASP-2; assay: selectivity for human MASP-2 over C1s (method not detailed; see FIG. 16)
[10] = target: T1, human MASP-2; assay: cell-based or functional assay; remark: listed apart in the source

T1 sequence (O00187 16-686): as the sequence (O00187 16-686 S633A) above, with A618S counted along it

B3: 17N16 mother clone, IgG4 hinge mutant (S228P) format (antibody, V domains shown)
VH: QVQLQQSGPGLVKPSQTLSLTCAISGDSVSSTSAAWNWIRQSPSRGLEWLGRTYYRSKWYNDYAVSVKSRITINPDTSKNQFSLQLNSVTPEDTAVYYCARDPFGVPFDIWGQGTMVTVSS
VL: SYVLTQPPSVSVAPGQTARITCGGNNIGSKNVHWYQQKPGQAPVLVVYDDSDRPSGIPERFSGSNSGNTATLTVSRVEAGDEADYYCQVWDTTTDHVVFGGGTKLTVL
notes: IgG4 S228P; also called 17N16 IgG4 mutated format
- Kd [7]: 0.0206 nM

B4: 17N16 mother clone, F(ab′)2 format (Fab, V domains shown)
VH: QVQLQQSGPGLVKPSQTLSLTCAISGDSVSSTSAAWNWIRQSPSRGLEWLGRTYYRSKWYNDYAVSVKSRITINPDTSKNQFSLQLNSVTPEDTAVYYCARDPFGVPFDIWGQGTMVTVSS
VL: SYVLTQPPSVSVAPGQTARITCGGNNIGSKNVHWYQQKPGQAPVLVVYDDSDRPSGIPERFSGSNSGNTATLTVSRVEAGDEADYYCQVWDTTTDHVVFGGGTKLTVL
notes: also called 17N16 F(ab′)2
- Kd [8]: 0.0959 nM

B5: MoAb #1 (OMS641), 17N16m_d17N9 IgG2 (antibody)
heavy: QVQLQQSGPGLVKPSQTLSLTCAISGDSVSSTSAAWNWIRQSPSRGLEWLGRTYYRSKWYNDYAVSVKSRITINPDTSKNQFSLQLNSVTPEDTAVYYCARDPFGVPFDIWGQGTMVTVSSASTKGPSVFPLAPCSRSTSESTAALGCLVKDYFPEPVTVSWNSGALTSGVHTFPAVLQSSGLYSLSSVVTVPSSNFGTQTYTCNVDHKPSNTKVDKTVERKCCVECPPCPAPPVAGPSVFLFPPKPKDTLMISRTPEVTCVVVDVSHEDPEVQFNWYVDGVEVHNAKTKPREEQFNSTFRVVSVLTVVHQDWLNGKEYKCKVSNKGLPAPIEKTISKTKGQPREPQVYTLPPSREEMTKNQVSLTCLVKGFYPSDIAVEWESNGQPENNYKTTPPMLDSDGSFFLYSKLTVDKSRWQQGNVFSCSVMHEALHNHYTQKSLSLSPGK
light: SYELIQPPSVSVAPGQTATITCAGDNLGKKRVHWYQQRPGQAPVLVIYDDSDRPSGIPDRFSASNSGNTATLTITRGEAGDEADYYCQVWDIATDHVVFGGGTKLTVLGQPKAAPSVTLFPPSSEELQANKATLVCLISDFYPGAVTVAWKADSSPVKAGVETTTPSKQSNNKYAASSYLSLTPEQWKSHRSYSCQVTHEGSTVEKTVAPTECS
notes: also called MoAb#1 (IgG2); 17N16_17N9
- Selectivity over C1s [9]: > 5000 fold
- Human C3 Assay IC50, 90% human serum [10]: 20 nM
- Human C4 assay IC50, 90% human serum [10]: 30 nM

Now from value to binder:

- Kd [1]: 10 nM
- 1% human serum C3 assay IC50 [2]: 360 nM
- 90% human serum C4 assay IC50 [2]: ~500 nM
- EC50 (read off the curve) [3]: ~3 nM
B1: scFv daughter clone 17D20m_d21N11 (scFv)
scFv: QVTLKESGPVLVKPTETLTLTCTVSGFSLSRGKMGVSWIRQPPGKALEWLAHIFSSDEKSYRTSLKSRLTISKDTSKNQVVLTMTNMDPVDTATYYCARIRAGGIDYWGQGTLVTVSSKLSGSASAPKLEEGEFSEARVQPVLTQPPSLSVSPGQTASITCSGEKLGDKYAYWYQQKPGQSPVLVMYQDKQRPSGIPERFSGSNSGNTATLTISGTQAMDEADYYCQAWDSSTAVFGGGTKLTVL

- Functional IC50, C3b deposition, human serum Exp #2 [4]: 104 nM
- Functional IC50, C3b deposition, human serum Exp #3 [4]: 308 nM
- Functional IC50, C3b deposition, human serum Exp #4 [4]: 199 nM
- Functional IC50, C3b deposition, non-human primate serum Exp #2 [5]: 71.7 nM
- Functional IC50, C3b deposition, rat serum Exp #1 [6]: 41 nM
B2: scFv mother clone 17L20 (scFv)
scFv: EVQLQQSGPGLVKPSQTLSLTCAISGDSVSSKRAAWDWIRQSPSRGLEWLGRTYYRSKWFNDYAISVKSRITINADTSRNQFSLQLNSVTPEDTAVYYCVKSNSGTGAFDSWGQGTLVTVSSKLSGSASAPKLEEGEFSEARVQPGLTQPPSVSVSPGQTARITCSRDKLGDKYVSWYQQKPGQSPVVVMYKDNKRPSGIPERFSGSNSGNTATLTISGTQAMDEADYYCQAWDSSTAGVFGGGTKLTVLAAAGSEQKLISEEDLNSHHHHHH
